Results reported in PMC6310021 (Science translational medicine, 2018).
Read-outs that look alike come from different tables or passages of the source.

B1: 125I-labeled MT-2 (natural protein)
chain: not shown
modifications: 125I label (site not stated)
B2: 6×His tag MT-2 recombinant protein (rat metallothionein-2) (natural protein)
chain: not shown

Tests used:
[1] = biological target: transgelin-2 (TG2) of rat airway smooth muscle cells (rat (endogenous in rat ASMCs), UniProt Q5XFX0 1-199); assay: radioligand binding
Sequence of transgelin-2 (TG2) of rat airway smooth muscle cells (Q5XFX0 whole entry): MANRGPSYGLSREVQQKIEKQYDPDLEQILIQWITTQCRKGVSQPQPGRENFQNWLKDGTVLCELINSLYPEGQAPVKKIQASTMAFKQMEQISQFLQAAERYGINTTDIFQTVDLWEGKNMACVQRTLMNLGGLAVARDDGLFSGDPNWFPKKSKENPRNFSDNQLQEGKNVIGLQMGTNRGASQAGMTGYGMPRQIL

[2] = biological target: T1, purified rat recombinant TG2 protein (transgelin-2) (rat, UniProt Q5XFX0 1-199); assay: SPR
T1 sequence (Q5XFX0 whole entry): as above

[3] = biological target: T1, purified rat recombinant TG2 protein …; assay: SPR; remark: listed apart in the source

| Binder | Kd [1] | Kd [2] | Kd [3] |
| --- | --- | --- | --- |
| B1 | 33.4 nM | – | – |
| B2 | – | 110 nM | 442 nM |
